Our source for the Kd values is paper PMC5430726 (2017).

This assay addresses T1, SLP65 peptide (Homo sapiens, UniProt Q8WV28).
T1 chain: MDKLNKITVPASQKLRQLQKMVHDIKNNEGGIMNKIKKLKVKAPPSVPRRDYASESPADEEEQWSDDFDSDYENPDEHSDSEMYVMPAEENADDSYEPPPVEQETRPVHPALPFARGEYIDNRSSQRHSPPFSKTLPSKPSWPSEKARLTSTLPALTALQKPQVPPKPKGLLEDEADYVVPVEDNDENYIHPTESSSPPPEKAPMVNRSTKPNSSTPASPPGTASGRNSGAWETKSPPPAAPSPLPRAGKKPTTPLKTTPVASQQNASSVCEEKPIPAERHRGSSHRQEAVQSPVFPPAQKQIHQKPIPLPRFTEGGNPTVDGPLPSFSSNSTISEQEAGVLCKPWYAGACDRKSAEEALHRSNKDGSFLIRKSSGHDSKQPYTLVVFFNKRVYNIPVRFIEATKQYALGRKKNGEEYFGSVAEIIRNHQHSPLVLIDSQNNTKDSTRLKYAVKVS
The assay is described as follows: ITC. On the technique in general: In ITC the heat of successive injections is recorded.

B1: Grb2 SH3C (protein)
chain: QQPTYVQALFDFDPQEDGELGFRRGDFIHVMDNSDPNWWKGACHGQTGMFPRNYVTPVNR
modifications: Grb2 SH3C pre-bound to Vav SH3N
Turning to B1, binding was characterised by a dissociation constant (Kd) of 33.3 µM.
